According to patent US20190248876A1 (NEW YORK UNIVERSITY, published 2019):

T1: CXCR1 (interleukin 8 receptor alpha chain) (human, UniProt P25024 1-350)
T1 construct: whole, on cells
T1 sequence: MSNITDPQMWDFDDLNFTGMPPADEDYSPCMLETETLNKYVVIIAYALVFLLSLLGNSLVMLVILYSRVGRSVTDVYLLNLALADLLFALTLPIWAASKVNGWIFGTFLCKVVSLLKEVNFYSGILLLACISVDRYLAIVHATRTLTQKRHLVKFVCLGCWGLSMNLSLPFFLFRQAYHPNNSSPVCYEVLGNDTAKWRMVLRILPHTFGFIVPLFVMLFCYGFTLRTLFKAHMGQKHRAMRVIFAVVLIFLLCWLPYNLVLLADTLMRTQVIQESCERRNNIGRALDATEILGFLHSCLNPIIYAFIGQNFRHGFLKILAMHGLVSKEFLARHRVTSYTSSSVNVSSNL

T2: CXCR2 (interleukin 8 receptor beta chain) (human, UniProt P25025 1-360)
T2 construct: whole, on cells
T2 sequence: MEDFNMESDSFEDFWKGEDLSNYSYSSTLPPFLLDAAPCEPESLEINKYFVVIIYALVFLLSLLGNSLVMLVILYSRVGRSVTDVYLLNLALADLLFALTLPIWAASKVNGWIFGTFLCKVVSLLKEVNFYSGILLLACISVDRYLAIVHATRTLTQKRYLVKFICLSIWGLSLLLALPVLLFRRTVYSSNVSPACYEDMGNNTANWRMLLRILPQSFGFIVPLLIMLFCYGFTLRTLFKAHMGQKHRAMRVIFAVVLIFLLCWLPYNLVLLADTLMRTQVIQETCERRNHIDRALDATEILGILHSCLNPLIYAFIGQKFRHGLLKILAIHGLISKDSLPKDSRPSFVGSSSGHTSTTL

B1: GFP-LukE (green fluorescent protein-fused LukE) (other)
chain: NTNIENIGDGAEVIKRTEDVSSKKWGVTQNVQFDFVKDKKYNKDALIVKMQGFINSRTSFSDVKGSGYELTKRMIWPFQYNIGLTTKDPNVSLINYLPKNKIETTDVGQTLGYNIGGNFQSAPSIGGNGSFNYSKTISYTQKSYVSEVDKQNSKSVKWGVKANEFVTPDGKKSAHDRYLFVQSPNGPTGSAREYFAPDNQLPPLVQSGFNPSFITTLSHEKGSSDTSEFEISYGRNLDITYATLFPRTGIYAERKHNAFVNRNFVVRYEVNWKTHEIKVKGHN
notes: also called LukE-GFP
B2: His-LukE (N-terminal 6xHis-tagged Leukocidin E, S. aureus Newman) (other)
chain: B1 chain

How the values were obtained:
[1] = target: T1, CXCR1 (interleukin 8 receptor alpha …); assay: flow cytometry, GFP-toxin on primary human PMNs (CXCR1/CXCR2+ cells)
[2] = target: T2, CXCR2 (interleukin 8 receptor beta …); assay: as above
[3] = target: T1, CXCR1 (interleukin 8 receptor alpha …); assay: legend of FIGS. 6A-6E: flow cytometry on PMNs and pulldown
[4] = target: T2, CXCR2 (interleukin 8 receptor beta …); assay: as above

| Binder | binding result [1] | binding result [2] | binding result [3] | binding result [4] |
| --- | --- | --- | --- | --- |
| B1 | binds | binds |  |  |
| B2 |  |  | binds | binds |
